# Measured values published in the nanobody polyreactivity screen of Harvey et al. (2022).
# Test: yeast display, Sf9 membrane polyspecificity reagent, FACS + sequencing; frameworks hold sequencing errors
# In short: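 Synthetic nanobody libraries on Saccharomyces cerevisiae BJ5465 were galactose-induced for 36–48 hours, stained 1 hour at 4 °C with 10% biotinylated, detergent-solubilized Sf9 membrane reagent and enriched on streptavidin microbeads. FACS then separated cells into low and high (top ~1%) gates by anti-HA (expression) and streptavidin (reagent binding) fluorescence. Genes were colony-PCR amplified, MiSeq 2 × 250 sequenced and CDR-length filtered. A clone's polyreactivity label is that of its gate of origin.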
row,Sequence,polyreactivity (PSR sort gate)
1,QVQLVESGGGLVQAGGSLRLSCAASGYIFGHYTMGWYRPAPGKEGELVAGITRGTRTYYADSVKGRFTISRDNAKNTVYLQMNSLKPEDTAVYYCAKRGPVRTQYTYYYWGQGTQVTVSS,high polyreactivity
2,QVQLVESGGGLVQAGGSLRLSCAASGYIFGPYAMGWYRQAPGKERELVAAITWRGGRTYADSVKGRFTISRDNAKNTVYLQMNSLKPEDTAVYFCATETGYSPFVYYSGRYGYWGQGTQVNVSS,high polyreactivity
3,QVQLVESGGGLVQAGGSLRLSCAASGYIFGQNAMGWYRPAPRKERELVASISDGGSTYYADSVKGRFTISRDNAKNTVYLQMNSLKPEDTAVYYCAAGQYWGEKALGAWLFDYWGQGTQLTVSS,low polyreactivity
4,QVQLVESGGGLVQAGGSLRLSCAASGYIFGQNARGLYRQAPGKERELGASMSDGGSTYYADSVKGRFTISRDNAKNTVYLQLNSLKPEDTAVYYCAAYYSYGSTSHTYTCFDYWGQGTQVTVSS,low polyreactivity
5,QVQLVESGGGLVQAGGSLRLSCAASGYIFGQYAMGWYRQAPGKERELVADITRGGDTYYADSVKGRFTISRDNAKNTVYLQMNSLKPEDTAVYYCAAEQGRTSYRYYYWGQGTQVTVSS,high polyreactivity
6,QVQLVESGGGLVQAGGSLRLSCAASGYIFGRNAMGWYRQAPGKEREFVAAISYSGSSTYYADSVKGRFTISRDNAKNTVYLQMNSLKPEDTAVYYCNAVYYRSRFGTSIRYDYWGQGTQVTVSS,high polyreactivity
7,QVQLVESGGGLVQAGGSLRLSCAASGYIFGYNAMGWYRPAPGKERELVATITWRGGSTYYADSVKGRFTISRDNAKNTVYLQMNSLKPEDTAVYYCAAVRWVRYRTSAYEYWGQGTQVTVSS,high polyreactivity
8,QVQLVESGGGLVQAGGSLRLSCAASGYIFGYYTMGWYRQAPGKERELVATIRSGGSTYYADSVKGRFTISRDNAKNTVYLQMNSLKPEDTAVYYWAKRVRRISEYGYWGQGTQVTVSS,high polyreactivity
9,QVQLVESGGGLVQAGGSLRLSCAASGYIFGYYVMGWYRQAPGKERELVAAISGRGGRTYYADSVKGRFTISRDNAKNTVYLQMNSLKPEDTAVYYCAAADLPGTMYYWGQGTQVTVSS,high polyreactivity
10,QVQLVESGGGLVQAGGSLRLSCAASGYIFHRYVMGWYRQAPGKERELVASISWSGGSTYYADSVKGRFTISRDNAKNTVYLQMTSLKPEDTAVYYCGALSPYRRGYYWGQGTQVTVSS,high polyreactivity
11,QVQLVESGGGLVQAGGSLRLSCAASGYIFKFYTMGWYRQAPGKERELVAAISRSGGSTYYADSVKGRFTISRDNAKNTVYLQLNSLKPEDTAVYYCARPRTRQGDYWGQGSQVTVSS,high polyreactivity
12,QVQLVESGGGLVQAGGSLRLSCAASGYIFKKYAMGWYRQAPGKEREFVAAISISGGRTYYADSVKGRFTISRDNAKNTVYLQMNSLKPEDTAVYYCNKVHYGRRHSYSGAIYGEDYWGQGTQVTVSS,high polyreactivity
13,QVQLVESGGGLVQAGGSLRLSCAASGYIFKSNVMGWYRQAPGKERELVAAITTDGSTYYADSVKGRFTISRDNAKNTVYLQMNSLKPEDTAVYYCAAGKAYWYARKPYARYYYWGQGTQVTVSS,high polyreactivity
14,QVQLVESGGGLVQAGGSLRLSCAASGYIFLRNAMGWYRQAPGKERELVAAIRRTGGSTYADSVKGRFTISRDNAKNTVYLQMNSLKPEDTAVYYCNAGYLLYYDYHLFYWVQGTQVTVSS,low polyreactivity
15,QVQLVESGGGLVQAGGSLRLSCAASGYIFLTNAMGWYRQAPGKERELVAAISVSGGRTYYADSVKGRFTISRDNAKNTVYLQMNSLKPEDTAVYYCNTLLTYGYDYWGQGTQVTVSS,low polyreactivity
16,QVQLVESGGGLVQAGGSLRLSCAASGYIFLYSTMGWYRQAPGKERELVAAITIGGGTYYADSVKGRFTISRDNAKNTVYLQMNSLKPEDTAVYYCNADYASYYRYSRPLEMNYWGQGTQVTVSS,low polyreactivity
17,QVQLVESGGGLVQAGGSLRLSCAASGYIFNKYVMGWYRQAPGKERELVAAISASGGSTYYADSVKGRFTISRDNAKNTVYLQMNSLKPEDTAVYYCAATLYRRMDYWGQGTEVTVSS,high polyreactivity
18,QVQLVESGGGLVQAGGSLRLSCAASGYIFPKNAIGWYRQAPWKERELVAAITGSGGSTYYADSVKGRFTISRDNAKNTVYLQMNSLKPEDTAVYYCAKRSWIEYDYWGQGTQVTVSS,low polyreactivity
19,QVQLVESGGGLVQAGGSLRLSCAASGYIFPSNTMGWSIQAPGKERELVATISRSGVSTYYADSVKGRFTISRDYAKNTVYLHMYSLKPDDTAVYYCAASTVYYYRSKWLSSFDYWGQGTQVTVSS,low polyreactivity
20,QVQLVESGGGLVQAGGSLRLSCAASGYIFRFNAMGWYRQAPGKERELVAVITSGARTYYADSVKGRFTISRDNAKNTVYLQMNSLKPEDTAVYYCNAGARRYLYDYWGQGTQVTVSS,low polyreactivity
21,QVQLVESGGGLVQAGGSLRLSCAASGYIFRGYVMGWYRQAPGKERELVAAITSRGDSTYYADSVKGRFTISRDNAKNTVYLQMNSLKPEDTAVYYCNAVHYYVEYDYWGQGTEVTVSS,high polyreactivity
22,QVQLVESGGGLVQAGGSLRLSCAASGYIFRLNAMGWYRQAAGKERELLAGISTGGRTNYADSVKGRFTISRDNAKNTVNLQMNSLTPEDTAVYYCAAAWHTASWVGSDSLGGGYWGQGTQVTVSS,low polyreactivity

row,Sequence,polyreactivity (PSR sort gate)
1,QVQLVESGGGLVQAGGSLRLSCAASGYIFRLYTMGWYRQAPGKERELVAAISYSGGSTYYADSVKGRFTISRDNAKNTVYLQMNSLKPEDTAVYYCAAEDWRGYRWIRYGYWGQGTQVTVSS,low polyreactivity
2,QVQLVESGGGLVQAGGSLRLSCAASGYIFSANAMGWYRQAPGKEREFVAAISSTGGSTYYADSVKGRFTISRDNAKNTVYLQMNSLKPEDTAVYYCAAYIRRYFHYDYWGQGTQVTVSS,high polyreactivity
3,QVQLVESGGGLVQAGGSLRLSCAASGYIFSGYAMGWYRQAPGKERELVAAISSSGGRTYYADSVKGRFTISRDNAKNTVYLQMNSLKPEDTAVYYCATVPRKTPGNAELDYWGQGTQVTVSS,high polyreactivity
4,QVQLVESGGGLVQAGGSLRLSCAASGYIFSLNGMGWYRQEPVKERELVAAITVSGGRTYYADSVKGRFTISRDNAKNTVYLQMNSLKPEDTAVYYCAKRGKYSYWPYYKYDYWGQGTQVTVSS,high polyreactivity
5,QVQLVESGGGLVQAGGSLRLSCAASGYIFSYNAMGWYRQAPGKERELVAAITGDSGTYYADSVKGRFTISRDNAKNTVYLQMNSLKPEDTAVYYCATDPYIFPVFYDLYWGYNYWGQGTQVTVSS,low polyreactivity
6,QVQLVESGGGLVQAGGSLRLSCAASGYIFTRNAMGWYRQAPGKDRELVAAISQGGGSTYYADSVKGRFTISRDNAKNTVYFQMNSLKPEDTAVYYCAAYFYTFVGYDYWGQGTQVTVSS,low polyreactivity
7,QVQLVESGGGLVQAGGSLRLSCAASGYIFVKNAMGWYRQAPGKERELVAAISTRGGRTYYADSVKGRFTISRDNAKNTVYLQMNSLKPEDTAVYYCAAVHQTSYYDANSYGYWGQGTQVTVSS,high polyreactivity
8,QVQLVESGGGLVQAGGSLRLSCAASGYIFVRNAMGWYRQAPGKERELVAAISGSGGSTYYADSVKGRFTISRDNAKNSVYLQMNSLKPEDTAVYYCAARRYGYRYDQPYSNDYWGLGTQVTVSS,low polyreactivity
9,QVQLVESGGGLVQAGGSLRLSCAASGYIFYAYAMGWYRQAPGKERELVAAISSGGGRTYYADSVKGRFTISRDNAKNTVDLQRNSLKPEDTAVYYCAARRRDRGEYYYWGQGTQVTVSS,high polyreactivity
10,QVQLVESGGGLVQAGGSLRLSCAASGYIFYDNAMGWYRQAPGKERELVAAISASGGDTYYADSVKGRFTISRDNAKNTVYLQMNSLKPEDTAVYYCAADLITYAMEYWGQGTEVTVSS,low polyreactivity
11,QVQLVESGGGLVQAGGSLRLSCAASGYIFYNYAMGWYRQAPGKERELVAAISRRGGSTYYADSVKGRFTISRDNAKNTVYLQMNSLKPEDTAVYYCAKTPYAHPNYYTDYYWGQGTQVTVSS,high polyreactivity
12,QVQLVESGGGLVQAGGSLRLSCAASGYIIDNNSMAWYRQAPGKERELVASNTNSAGSTSYADSVKGRFTISRDNAKNTVYLQMNSLKPEDTAVYYCAAKRYHYFFPYSRRGAYGYWGQGTQVTVSS,high polyreactivity
13,QVQLVESGGGLVQAGGSLRLSCAASGYILPKNTMGWYRQAPGKERELVAAISWSGGSTFYADSVKGRFTISRDNAKNTVYLQMNSLKPEDTAVYYCAADRYWSWYYRYDYWGQGTQVTVSS,low polyreactivity
14,QVQLVESGGGLVQAGGSLRLSCAASGYILPKNTMGWYRQAPGKERESVAVITYSGGSTYYADSVKGRFTISRDNAKNTVYLQMNSLKPEDTAVYYCAADKWYYVRYPTDAYSKFDYWGQGTQVTVSS,low polyreactivity
15,QVQLVESGGGLVQAGGSLRLSCAASGYILRSNAMGWYRQAPGKEREFVAAITYSGGSTYYADSEKGRFTISLDNAMNSVYLQMNSLKPEDTAVYYCAKTTRYQRGYGYWGQGTQVTVSS,low polyreactivity
16,QVQLVESGGGLVQAGGSLRLSCAASGYILWNAMGWYRQAPGKERELVAAIRFRGGSTSYADSVKGRFTISRDNAKNTVYLQMNSLKPEDTAVYYCNARWWVIRPYQRHDYWGQGTQVTVSS,low polyreactivity
17,QVQLVESGGGLVQAGGSLRLSCAASGYISSYNPMGWSRQAPGKERELVASITRGGSTYYADSVKGRFTISRDNAKNTVYLQMNSLKPEDTAVYYCAADTLRQYDYEYWGQGTQVTVSS,high polyreactivity
18,QVQLVESGGGLVQAGGSLRLSCAASGYIWCYAMGWDRQAPGKEWELVAAISWGGGSTYYADSVKGRFTISRDNAKNTVYLQMNSLKREDTAVYYCAAVDAVGPTSHAMYYWGLGTQVTVSS,low polyreactivity
19,QVQLVESGGGLVQAGGSLRLSCAASGYNFFSYAKGWYRQPPGKERELVAAISRGGRTYYADSVKGRFTISRDNAKNTVYLQMKILKPEDTAVYYCNAVSTPGKYGYWGQGTQVTVSS,high polyreactivity
20,QVQLVESGGGLVQAGGSLRLSCAASGYSFYYNAMGWYRQAPGKERELVAAISYTGGSTYYADSVKGRFTISRDNAKNTVYLQMNSLKPEDTAVYYCAAEYYTYVSDNYQHYGYWGQGTQVTVSS,low polyreactivity
21,QVQLVESGGGLVQAGGSLRLSCAASGYTCDANAMGWYRQATGKERELVASISSISDSTDYADAVKGRITISRDNATNTVYLQMKILKPEDTAVYYCARSDVKPGRQERDYWGQGTQVTVSS,low polyreactivity
